The results in this text go back to article PMC8634136 (The EMBO Journal, 2021).

The chains are these.
B1: TIPIN (natural protein, human)
chain: MLEPQENGVIDLPDYEHVEDETFPPFPPPASPERQDGEGTEPDEESGNGAPVRVPPKRTVKRNIPKLDAQRLISERGLPALRHVFDKAKFKGKGHEAEDLKMLIRHMEHWAHRLFPKLQFEDFIDRVEYLGSKKEVQTCLKRIRLDLPILHEDFVSNNDEVAENNEHDVTSTELDPFLTNLSESEMFASELSRSLTEEQQQRIERNKQLALERRQAKLLSNSQTLGNDMLMNTPRAHTVEEVNTDEDQKEESNGLNEDILDNPCNDAIANTLNEEETLLDQSFKNVQQQLDATSRNITEAR
notes: TIPIN, human; Stood in the structure as a subunit of m3; residues 62-147 modelled
B2: AND‐1 (natural protein, human)
chain: MPATRKPMRYGHTEGHTEVCFDDSGSFIVTCGSDGDVRIWEDLDDDDPKFINVGEKAYSCALKSGKLVTAVSNNTIQVHTFPEGVPDGILTRFTTNANHVVFNGDGTKIAAGSSDFLVKIVDVMDSSQQKTFRGHDAPVLSLSFDPKDIFLASASCDGSVRVWQISDQTCAISWPLLQKCNDVINAKSICRLAWQPKSGKLLAIPVEKSVKLYRRESWSHQFDLSDNFISQTLNIVTWSPCGQYLAAGSINGLIIVWNVETKDCMERVKHEKGYAICGLAWHPTCGRISYTDAEGNLGLLENVCDPSGKTSSSKVSSRVEKDYNDLFDGDDMSNAGDFLNDNAVEIPSFSKGIINDDEDDEDLMMASGRPRQRSHILEDDENSVDISMLKTGSSLLKEEEEDGQEGSIHNLPLVTSQRPFYDGPMPTPRQKPFQSGSTPLHLTHRFMVWNSIGIIRCYNDEQDNAIDVEFHDTSIHHATHLSNTLNYTIADLSHEAILLACESTDELASKLHCLHFSSWDSSKEWIIDLPQNEDIEAICLGQGWAAAATSALLLRLFTIGGVQKEVFSLAGPVVSMAGHGEQLFIVYHRGTGFDGDQCLGVQLLELGKKKKQILHGDPLPLTRKSYLAWIGFSAEGTPCYVDSEGIVRMLNRGLGNTWTPICNTREHCKGKSDHYWVVGIHENPQQLRCIPCKGSRFPPTLPRPAVAILSFKLPYCQIATEKGQMEEQFWRSVIFHNHLDYLAKNGYEYEESTKNQATKEQQELLMKMLALSCKLEREFRCVELADLMTQNAVNLAIKYASRSRKLILAQKLSELAVEKAAELTATQVEEEEEEEDFRKKLNAGYSNTATEWSQPRFRNQVEEDAEDSGEADDEEKPEIHKPGQNSFSKSTNSSDVSAKSGAVTFSSQGRVNPFKVSASSKEPAMSMNSARSTNILDNMGKSSKKSTALSRTTNNEKSPIIKPLIPKPKPKQASAASYFQKRNSQTNKTEEVKEENLKNVLSETPAICPPQNTENQRPKTGFQMWLEENRSNILSDNPDFSDEADIIKEGMIRFRVLSTEERKVWANKAKGETASEGTEAKKRKRVVDESDETENQEEKAKENLNLSKKQKPLDFSTNQKLSAFAFKQE
notes: AND-1, human; Only the trimer of SepB domains is ordered in the map; source: Hi5 insect cells (baculovirus), purified (Flag M2, MonoQ, Superdex 200)
B3: PSF1 (natural protein, human)
chain: MFCEKAMELIRELHRAPEGQLPAFNEDGLRQVLEEMKALYEQNQSDVNEAKSGGRSDLIPTIKFRHCSLLRNRRCTVAYLYDRLLRIRALRWEYGSVLPNALRFHMAAEEMEWFNNYKRSLATYMRSLGGDEGLDITQDMKPPKSLYIEVRCLKDYGEFEVDDGTSVLLKKNSQHFLPRWKCEQLIRQGVLEHILS
notes: PSF1 (GINS subunit), human; Stood in the structure as a subunit of m1; also called GINS subunit PSF1; source: Hi5 insect cells, purified as a subunit of hsCMG
B4: POLE2 (natural protein, human)
chain: MAPERLRSRALSAFKLRGLLLRGEAIKYLTEALQSISELELEDKLEKIINAVEKQPLSSNMIERSVVEAAVQECSQSVDETIEHVFNIIGAFDIPRFVYNSERKKFLPLLMTNHPAPNLFGTPRDKAEMFRERYTILHQRTHRHELFTPPVIGSHPDESGSKFQLKTIETLLGSTTKIGDAIVLGMITQLKEGKFFLEDPTGTVQLDLSKAQFHSGLYTEACFVLAEGWFEDQVFHVNAFGFPPTEPSSTTRAYYGNINFFGGPSNTSVKTSAKLKQLEEENKDAMFVFLSDVWLDQVEVLEKLRIMFAGYSPAPPTCFILCGNFSSAPYGKNQVQALKDSLKTLADIICEYPDIHQSSRFVFVPGPEDPGFGSILPRPPLAESITNEFRQRVPFSVFTTNPCRIQYCTQEITVFREDLVNKMCRNCVRFPSSNLAIPNHFVKTILSQGHLTPLPLYVCPVYWAYDYALRVYPVPDLLVIADKYDPFTTTNTECLCINPGSFPRSGFSFKVFYPSNKTVEDSKLQGF
notes: POLE2, human; Stood in the structure as a subunit of m2; residues 1-527 modelled; source: Hi5 insect cells, purified as a subunit of Pol ε

One series deals with T1, TIMELESS (human, UniProt Q9UNS1 1-1208).
T1 construct: Stood in the structure as a subunit of m3; residues 7-803 modelled (527-684 not visualised)
T1 sequence: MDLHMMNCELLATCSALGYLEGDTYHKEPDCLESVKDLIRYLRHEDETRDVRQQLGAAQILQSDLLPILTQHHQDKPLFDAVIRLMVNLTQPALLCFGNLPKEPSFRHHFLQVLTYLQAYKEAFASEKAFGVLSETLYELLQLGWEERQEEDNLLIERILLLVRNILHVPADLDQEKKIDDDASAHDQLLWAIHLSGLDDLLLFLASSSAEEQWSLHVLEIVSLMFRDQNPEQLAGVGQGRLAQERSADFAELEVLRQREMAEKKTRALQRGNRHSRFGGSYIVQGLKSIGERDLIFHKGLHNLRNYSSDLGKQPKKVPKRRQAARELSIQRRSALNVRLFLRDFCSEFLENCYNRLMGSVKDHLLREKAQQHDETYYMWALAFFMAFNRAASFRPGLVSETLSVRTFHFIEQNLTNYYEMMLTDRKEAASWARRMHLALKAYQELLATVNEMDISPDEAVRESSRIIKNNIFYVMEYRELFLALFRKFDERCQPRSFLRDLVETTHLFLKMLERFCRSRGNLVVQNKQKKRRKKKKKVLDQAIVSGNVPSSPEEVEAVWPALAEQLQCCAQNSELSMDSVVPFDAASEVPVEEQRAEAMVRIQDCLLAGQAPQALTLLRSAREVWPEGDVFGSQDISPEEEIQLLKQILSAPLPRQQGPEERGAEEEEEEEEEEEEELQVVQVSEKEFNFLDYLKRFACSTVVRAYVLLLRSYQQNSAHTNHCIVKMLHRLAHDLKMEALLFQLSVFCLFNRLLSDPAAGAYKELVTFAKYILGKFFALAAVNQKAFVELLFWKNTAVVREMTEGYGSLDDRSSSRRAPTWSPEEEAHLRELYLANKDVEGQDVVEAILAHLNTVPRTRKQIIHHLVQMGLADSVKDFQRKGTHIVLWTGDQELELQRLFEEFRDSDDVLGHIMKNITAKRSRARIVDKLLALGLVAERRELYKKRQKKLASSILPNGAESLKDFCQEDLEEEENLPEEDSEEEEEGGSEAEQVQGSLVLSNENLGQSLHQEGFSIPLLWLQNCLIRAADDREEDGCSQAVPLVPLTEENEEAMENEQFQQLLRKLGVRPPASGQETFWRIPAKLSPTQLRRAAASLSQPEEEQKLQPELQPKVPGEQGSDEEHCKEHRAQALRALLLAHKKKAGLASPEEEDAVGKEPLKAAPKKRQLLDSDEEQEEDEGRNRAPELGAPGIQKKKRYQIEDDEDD
The series is described as follows: cryo-EM structure; replisome reconstituted on fork DNA with AMP-PNP, isolated on a glycerol gradient with glutaraldehyde and BS3; 3.2 Å overall; a sample without CLASPIN solved at 3.4 Å. The conditions noted are these: both partners purified.

The target of the next series is T2, MCM7 (human, UniProt P33993 1-719).
T2 construct: MCM7, human; Stood in the structure as a subunit of m1; source: Hi5 insect cells, purified as a subunit of hsCMG
T2 sequence (P33993 whole entry): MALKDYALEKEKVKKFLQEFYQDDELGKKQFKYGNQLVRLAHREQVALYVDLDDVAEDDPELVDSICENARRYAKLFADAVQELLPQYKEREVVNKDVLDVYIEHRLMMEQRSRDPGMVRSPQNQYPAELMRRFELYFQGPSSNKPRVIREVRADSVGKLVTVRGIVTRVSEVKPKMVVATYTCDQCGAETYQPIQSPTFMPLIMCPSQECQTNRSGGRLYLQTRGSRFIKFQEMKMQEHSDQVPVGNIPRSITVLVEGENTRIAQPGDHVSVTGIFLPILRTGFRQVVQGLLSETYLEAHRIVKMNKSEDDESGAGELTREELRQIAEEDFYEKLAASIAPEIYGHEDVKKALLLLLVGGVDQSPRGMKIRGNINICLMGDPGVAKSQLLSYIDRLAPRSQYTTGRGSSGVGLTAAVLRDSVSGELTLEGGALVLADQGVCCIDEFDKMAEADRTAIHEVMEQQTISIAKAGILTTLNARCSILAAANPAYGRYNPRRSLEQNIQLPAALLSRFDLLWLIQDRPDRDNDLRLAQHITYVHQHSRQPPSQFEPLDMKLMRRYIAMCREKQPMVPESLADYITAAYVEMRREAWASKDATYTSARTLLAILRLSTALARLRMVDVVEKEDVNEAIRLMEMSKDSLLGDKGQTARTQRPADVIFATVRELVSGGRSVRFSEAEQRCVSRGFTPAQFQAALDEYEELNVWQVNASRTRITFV
The description is as above. The settings on record: both partners purified.

Series [1] deals with the molecule itself. The series is described as above.
Series [2] deals with T3, human CDC45‐MCM‐GINS (CMG) helicase (human, UniProt P49736 1-904; P25205 1-808; P33991 1-863; P33992 1-734; Q14566 1-821; P33993 …).
T3 construct: MCM2, human; MCM3, human; the construct lacks the 45 additional N-terminal amino acids of the longer isoform used in PDB 6XTX; MCM4, human; MCM5, human; MCM6, human; MCM7, human; CDC45, human; PSF1 (GINS subunit), human; PSF2 (GINS subunit), human; PSF3 (GINS subunit), human; SLD5 (GINS subunit), human; also called hsCMG; source: Hi5 insect cells co-infected with baculoviruses for MCM2-7, GINS …
The experiment in a line: co-sedimentation; native glycerol gradient without cross-linker (40 mM HEPES-NaOH pH 7.5, 150 mM NaOAc, 0.5 mM TCEP, 500 µM AMP-PNP, 3 mM Mg(OAc)2), 200,000 g, 4°C, 2 h; 100 nM CMG pre-incubated with fork DNA, 1.5-fold molar excess of the other proteins; fractions on silver-stained SDS-PAGE. The settings on record: both partners purified.

The series “POLE2” concerns the target B4. The series is described as follows: cryo-EM structure; replisome reconstituted on fork DNA with AMP-PNP, isolated on a glycerol gradient with glutaraldehyde and BS3; 3.2 Å overall; a sample without CLASPIN solved at 3.4 Å. The settings on record: both partners purified.
For another series, the target named is T4, MCM5 (human, UniProt P33992 1-734).
T4 construct: MCM5, human; Stood in the structure as a subunit of m1; source: Hi5 insect cells, purified as a subunit of hsCMG
T4 sequence: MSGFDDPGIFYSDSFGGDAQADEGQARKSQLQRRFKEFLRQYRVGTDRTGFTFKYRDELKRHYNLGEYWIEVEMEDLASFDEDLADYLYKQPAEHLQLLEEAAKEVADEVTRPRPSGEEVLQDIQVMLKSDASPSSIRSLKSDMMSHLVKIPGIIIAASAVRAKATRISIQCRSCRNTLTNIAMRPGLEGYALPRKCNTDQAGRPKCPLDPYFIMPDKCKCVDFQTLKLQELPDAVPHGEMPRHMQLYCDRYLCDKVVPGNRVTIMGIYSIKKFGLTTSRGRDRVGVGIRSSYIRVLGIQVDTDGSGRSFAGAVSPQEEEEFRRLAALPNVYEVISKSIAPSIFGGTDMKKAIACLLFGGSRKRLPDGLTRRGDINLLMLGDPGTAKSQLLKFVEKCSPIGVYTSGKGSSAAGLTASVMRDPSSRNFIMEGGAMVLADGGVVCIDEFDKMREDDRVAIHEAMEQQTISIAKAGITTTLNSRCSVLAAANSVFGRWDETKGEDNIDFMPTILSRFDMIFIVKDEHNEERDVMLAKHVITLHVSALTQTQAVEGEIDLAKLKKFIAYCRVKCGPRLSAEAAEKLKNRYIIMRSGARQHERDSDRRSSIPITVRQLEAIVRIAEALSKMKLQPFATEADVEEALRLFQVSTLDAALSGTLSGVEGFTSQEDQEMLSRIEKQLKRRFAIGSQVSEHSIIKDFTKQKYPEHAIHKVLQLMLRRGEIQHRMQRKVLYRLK
The series is described as above. The settings on record: both partners purified.

In the case of B1, the binding result with TIMELESS and in the series with MCM7 was “binds” in each case.
With B2, the “stoichiometry N” value in series [1] stood at 3. Moreover, the binding result in series [2] is “binds”.
In the case of B3, in the series with POLE2, the binding result was “binds”.
Take B4: the binding result with MCM5 was “binds”.

A word on the stoichiometry N: it is a count of units in the complex or per binding partner.
